From PMC6983393

Target: K. lactis 80S ribosome (40S and 60S subunits) (K. lactis)
Test: co-sedimentation; 30 pmol eIF5B, 15 pmol K. lactis 80S ribosomes, 0.1 mM GDPNP in 30 uL of 20 mM Hepes pH 7.4, 50 mM KCl, 2 mM DTT, 2.5 mM Mg-acetate, 30 C for 5 min; pelleted through a 1 M sucrose cushion (80,000 rpm, 3 h, 4 C); pellets on SDS/PAGE, Coomassie, bands quantified and normalised to WT

Substance	fold reduction in ribosomal binding against WT [fold]
eIF5B-DIII-h12-Loop mutant (K. lactis eIF5B 361-967, residues 835-839 in S. cerevisiae numbering / 800-804 in K. lactis substituted to alanine) (domain or fragment)	2
eIF5B-YxA mutant (K. lactis eIF5B 361-967, Tyr837 in S. cerevisiae numbering / Tyr802 in K. lactis substituted to alanine) (domain or fragment)	2
